Data taken from patent publication US20190300618A1 (Merck Sharp & Dohme, published 2019).

Columns and labels:
Assay in all cases: flow cytometry, CHO-K1; single column;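 note: CHO-K1 cells transiently transfected with hCD27 alanine mutant constructs, anti-hCD27 antibody binding measured by flow cytometry, 30 min at 4 °C, wild-type hCD27 binding taken as 100%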
D32A = biological target: T1, D32A
T1 construct: also called hCD27 D32A
T1 receptor: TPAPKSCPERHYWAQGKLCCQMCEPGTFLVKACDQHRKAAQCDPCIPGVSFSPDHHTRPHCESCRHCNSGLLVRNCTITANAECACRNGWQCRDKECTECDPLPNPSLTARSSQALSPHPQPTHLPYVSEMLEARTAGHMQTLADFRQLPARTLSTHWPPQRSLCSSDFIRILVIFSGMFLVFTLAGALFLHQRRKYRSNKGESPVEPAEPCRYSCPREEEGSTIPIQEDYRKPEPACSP
Procedure: (§1) The ability of several anti-hCD27 antibodies to bind to a series of hCD27 alanine mutants was determined using CHO-K1 cells, transiently transfected pCI-neo empty vector, pCI-neo.hCD27 and several pCI-neo.CD27Ala mutant constructs.
(§2) Detached cells were transferred to 96 wells round-bottomed well plates at approximately 1.2×10⁵ cells/well. After spinning down the cells, discarding the supernatants and re-suspending the cells in the residual volume, the primary antibodies were added and incubated for 30 minutes at 4° C. Cells were washed three times with DPBS/BSA 1%, followed by centrifugation, discarding of the supernatants and re-suspension in the residual volume. […] After washing once, antibody binding was detected using the HTS plate reader (FACS Canto II) and FlowJo software for data analysis. Debris, dead cells and doublets were excluded from the analysis. Binding was expressed as the geometric mean of the FITC signal, relative to antibody binding to hCD27, which was set at 100%.

D43A = biological target: T2, D43A
T2 construct: also called hCD27 D43A
T2 receptor: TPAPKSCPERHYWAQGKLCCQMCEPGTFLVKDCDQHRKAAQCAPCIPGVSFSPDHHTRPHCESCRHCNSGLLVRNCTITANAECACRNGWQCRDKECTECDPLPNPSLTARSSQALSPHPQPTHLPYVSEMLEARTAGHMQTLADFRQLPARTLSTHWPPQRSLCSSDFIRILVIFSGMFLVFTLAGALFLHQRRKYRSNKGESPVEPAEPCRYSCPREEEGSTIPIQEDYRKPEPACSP
Procedure: as §1, §2

P44A = biological target: T3, P44A
T3 construct: also called hCD27 P44A
T3 receptor: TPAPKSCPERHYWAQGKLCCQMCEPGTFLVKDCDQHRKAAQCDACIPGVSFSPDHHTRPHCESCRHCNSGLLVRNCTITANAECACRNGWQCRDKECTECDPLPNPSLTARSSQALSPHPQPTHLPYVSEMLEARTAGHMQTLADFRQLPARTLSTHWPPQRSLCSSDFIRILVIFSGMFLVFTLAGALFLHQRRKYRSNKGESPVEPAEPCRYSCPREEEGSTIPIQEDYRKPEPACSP
Procedure: as §1, §2

I46A = biological target: T4, I46A
T4 construct: also called hCD27 I46A
T4 receptor: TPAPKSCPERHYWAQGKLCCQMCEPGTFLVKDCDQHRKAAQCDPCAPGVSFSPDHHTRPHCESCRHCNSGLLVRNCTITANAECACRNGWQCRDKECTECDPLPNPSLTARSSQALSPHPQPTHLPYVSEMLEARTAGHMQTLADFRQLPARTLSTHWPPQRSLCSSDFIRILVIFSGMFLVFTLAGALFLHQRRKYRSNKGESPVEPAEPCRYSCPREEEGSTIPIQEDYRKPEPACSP
Procedure: as §1, §2

V49A = biological target: T5, V49A
T5 construct: also called hCD27 V49A
T5 receptor: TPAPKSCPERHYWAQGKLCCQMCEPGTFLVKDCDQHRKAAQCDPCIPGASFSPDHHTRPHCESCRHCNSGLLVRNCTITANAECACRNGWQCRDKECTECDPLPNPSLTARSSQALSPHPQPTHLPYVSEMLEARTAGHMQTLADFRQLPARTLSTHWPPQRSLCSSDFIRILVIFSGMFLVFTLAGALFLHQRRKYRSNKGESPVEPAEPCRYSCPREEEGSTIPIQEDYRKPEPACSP
Procedure: as §1, §2

N88A = biological target: T6, N88A
T6 construct: also called hCD27 N88A
T6 receptor: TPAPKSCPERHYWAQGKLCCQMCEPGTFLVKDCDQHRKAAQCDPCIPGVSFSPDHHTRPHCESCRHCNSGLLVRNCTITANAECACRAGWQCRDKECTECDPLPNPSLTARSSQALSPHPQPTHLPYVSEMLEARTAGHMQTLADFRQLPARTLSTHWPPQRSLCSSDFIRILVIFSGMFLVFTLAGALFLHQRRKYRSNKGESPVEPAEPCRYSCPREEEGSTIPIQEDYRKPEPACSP
Procedure: as §1, §2

W90A = biological target: T7, W90A
T7 construct: also called hCD27 W90A
T7 receptor: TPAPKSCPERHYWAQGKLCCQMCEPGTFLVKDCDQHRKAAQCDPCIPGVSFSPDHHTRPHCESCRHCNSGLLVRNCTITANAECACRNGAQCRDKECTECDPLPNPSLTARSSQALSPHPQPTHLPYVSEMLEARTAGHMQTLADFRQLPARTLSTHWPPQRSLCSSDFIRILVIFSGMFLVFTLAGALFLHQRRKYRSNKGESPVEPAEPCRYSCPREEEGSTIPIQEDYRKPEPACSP
Procedure: as §1, §2

Q91A = biological target: T8, Q91A
T8 construct: also called hCD27 Q91A
T8 receptor: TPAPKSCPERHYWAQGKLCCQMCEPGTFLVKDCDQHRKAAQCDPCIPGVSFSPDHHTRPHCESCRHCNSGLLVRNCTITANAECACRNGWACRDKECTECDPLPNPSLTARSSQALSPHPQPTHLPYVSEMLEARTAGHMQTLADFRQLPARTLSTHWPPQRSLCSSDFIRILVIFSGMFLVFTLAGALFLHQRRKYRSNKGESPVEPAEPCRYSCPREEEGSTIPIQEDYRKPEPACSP
Procedure: as §1, §2

R93A = biological target: T9, R93A
T9 construct: also called hCD27 R93A
T9 receptor: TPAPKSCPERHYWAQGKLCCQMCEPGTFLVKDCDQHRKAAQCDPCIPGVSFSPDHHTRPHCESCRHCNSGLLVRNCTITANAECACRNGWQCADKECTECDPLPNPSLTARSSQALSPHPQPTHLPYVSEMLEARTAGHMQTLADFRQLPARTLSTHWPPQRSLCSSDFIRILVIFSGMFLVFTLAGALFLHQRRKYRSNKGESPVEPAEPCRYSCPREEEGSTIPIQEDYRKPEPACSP
Procedure: as §1, §2

P8A = biological target: T10, P8A
T10 construct: also called hCD27 P8A
T10 receptor: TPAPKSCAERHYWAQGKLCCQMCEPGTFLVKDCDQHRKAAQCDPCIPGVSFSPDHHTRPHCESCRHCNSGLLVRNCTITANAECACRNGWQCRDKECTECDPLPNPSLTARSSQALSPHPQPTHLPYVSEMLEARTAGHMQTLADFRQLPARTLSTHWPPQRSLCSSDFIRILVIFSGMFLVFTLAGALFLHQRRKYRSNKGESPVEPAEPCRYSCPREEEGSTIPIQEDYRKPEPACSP
Procedure: as §1, §2

% of WT hCD27 binding (geo mean FITC) (D32A): 50.6%
% of WT hCD27 binding (geo mean FITC) (D43A): 31%
% of WT hCD27 binding (geo mean FITC) (P44A): 68.7%
% of WT hCD27 binding (geo mean FITC) (I46A): 81.9%
% of WT hCD27 binding (geo mean FITC) (V49A): 69%
% of WT hCD27 binding (geo mean FITC) (N88A): 132%
% of WT hCD27 binding (geo mean FITC) (W90A): 93.8%
% of WT hCD27 binding (geo mean FITC) (Q91A): 136%
% of WT hCD27 binding (geo mean FITC) (R93A): 131%
% of WT hCD27 binding (geo mean FITC) (P8A): 63%
B1: hCD27.15-6B (humanized hCD27.15, human IgG4, Clone 6B) (antibody, V domains shown)
VH: QVQLVQSGAEVKKPGASVKVSCKASGFIIKATYMHWVRQAPGQRLEWMGRIDPANGETKYDPKFQVRVTITADTSASTAYMELSSLRSEDTAVYYCARYAWYFDVWGQGTLVTVSS
VL: DIQMTQSPSSLSASVGDRVTITCRASENIYSFLAWYQQKPGKAPKLLIYHAKTLAEGVTSRFSGSGSGTDFTLTISSLQPEDSATYYCQHYYGSPLTFGQGTRLEIKR
notes: humanized version of hCD27.15 from WO2012/004367 with identical CDR regions; also called hCD27.15 (humanized 6B); hCD27.15 6B humanized antibody
